What follows are substances tested against gbrap_human GABARAP (UniProt O95166).
gbrap_human GABARAP, sequence (O95166 whole entry): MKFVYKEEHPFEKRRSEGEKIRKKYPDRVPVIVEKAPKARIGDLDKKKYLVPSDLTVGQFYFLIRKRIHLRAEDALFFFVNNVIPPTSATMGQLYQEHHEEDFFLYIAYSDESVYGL
For “Pericentriolar material 1 protein (Homo sapiens), Q15154 I1975W”, the “effect of a mutation on the interaction” value was “with no effect”. For “Pericentriolar material 1 protein (Homo sapiens), Q15154 I1975Y”, the “effect of a mutation on the interaction” value was “with no effect”. For “Pericentriolar material 1 protein (Homo sapiens), Q15154 K1957A”, the “effect of a mutation on the interaction” value was “with no effect”. For “Pericentriolar material 1 protein (Homo sapiens), Q15154 K1957C”, the “effect of a mutation on the interaction” value was “with no effect”. In the case of “Pericentriolar material 1 protein (Homo sapiens), Q15154 K1957D”, the “effect of a mutation on the interaction” value is reported as “with no effect”. For “Pericentriolar material 1 protein (Homo sapiens), Q15154 K1957E”, the “effect of a mutation on the interaction” value was “with no effect”. With “Pericentriolar material 1 protein (Homo sapiens), Q15154 K1957F” the “effect of a mutation on the interaction” value was “with no effect”. In the case of “Pericentriolar material 1 protein (Homo sapiens), Q15154 K1957G”, the “effect of a mutation on the interaction” value is reported as “with no effect”. “Pericentriolar material 1 protein (Homo sapiens), Q15154 K1957H” was tested, and the “effect of a mutation on the interaction” value was “with no effect”. “Pericentriolar material 1 protein (Homo sapiens), Q15154 K1957I” was tested, and the “effect of a mutation on the interaction” value was “with no effect”. “Pericentriolar material 1 protein (Homo sapiens), Q15154 K1957L” was tested, and the “effect of a mutation on the interaction” value was “with no effect”. In the case of “Pericentriolar material 1 protein (Homo sapiens), Q15154 K1957M”, the “effect of a mutation on the interaction” value is reported as “with no effect”. For “Pericentriolar material 1 protein (Homo sapiens), Q15154 K1957N”, the “effect of a mutation on the interaction” value was “with no effect”. For “Pericentriolar material 1 protein (Homo sapiens), Q15154 K1957P”, the “effect of a mutation on the interaction” value was “with no effect”. In the case of “Pericentriolar material 1 protein (Homo sapiens), Q15154 K1957Q”, the “effect of a mutation on the interaction” value is reported as “with no effect”. For “Pericentriolar material 1 protein (Homo sapiens), Q15154 K1957R”, the “effect of a mutation on the interaction” value was “with no effect”. For “Pericentriolar material 1 protein (Homo sapiens), Q15154 K1957S”, the “effect of a mutation on the interaction” value was “with no effect”. In the case of “Pericentriolar material 1 protein (Homo sapiens), Q15154 K1957T”, the “effect of a mutation on the interaction” value is reported as “with no effect”. For “Pericentriolar material 1 protein (Homo sapiens), Q15154 K1957V”, the “effect of a mutation on the interaction” value was “with no effect”. With “Pericentriolar material 1 protein (Homo sapiens), Q15154 K1957W” the “effect of a mutation on the interaction” value was “with no effect”. With “Pericentriolar material 1 protein (Homo sapiens), Q15154 K1957Y” the “effect of a mutation on the interaction” value was “with no effect”. For “Pericentriolar material 1 protein (Homo sapiens), Q15154 K1965A”, the “effect of a mutation on the interaction” value was “with no effect”. “Pericentriolar material 1 protein (Homo sapiens), Q15154 K1965C” was tested, and the “effect of a mutation on the interaction” value was “with no effect”. In the case of “Pericentriolar material 1 protein (Homo sapiens), Q15154 K1965D”, the “effect of a mutation on the interaction” value is reported as “with no effect”. “Pericentriolar material 1 protein (Homo sapiens), Q15154 K1965E” was tested, and the “effect of a mutation on the interaction” value was “with no effect”. “Pericentriolar material 1 protein (Homo sapiens), Q15154 K1965F” was tested, and the “effect of a mutation on the interaction” value was “with no effect”. In the case of “Pericentriolar material 1 protein (Homo sapiens), Q15154 K1965G”, the “effect of a mutation on the interaction” value is reported as “disrupting interaction strength”. With “Pericentriolar material 1 protein (Homo sapiens), Q15154 K1965H” the “effect of a mutation on the interaction” value was “with no effect”. For “Pericentriolar material 1 protein (Homo sapiens), Q15154 K1965I”, the “effect of a mutation on the interaction” value was “with no effect”. In the case of “Pericentriolar material 1 protein (Homo sapiens), Q15154 K1965L”, the “effect of a mutation on the interaction” value is reported as “with no effect”. For “Pericentriolar material 1 protein (Homo sapiens), Q15154 K1965M”, the “effect of a mutation on the interaction” value was “with no effect”. In the case of “Pericentriolar material 1 protein (Homo sapiens), Q15154 K1965N”, the “effect of a mutation on the interaction” value is reported as “with no effect”. In the case of “Pericentriolar material 1 protein (Homo sapiens), Q15154 K1965P”, the “effect of a mutation on the interaction” value is reported as “disrupting interaction strength”. “Pericentriolar material 1 protein (Homo sapiens), Q15154 K1965Q” was tested, and the “effect of a mutation on the interaction” value was “with no effect”. With “Pericentriolar material 1 protein (Homo sapiens), Q15154 K1965R” the “effect of a mutation on the interaction” value was “with no effect”. With “Pericentriolar material 1 protein (Homo sapiens), Q15154 K1965S” the “effect of a mutation on the interaction” value was “with no effect”. With “Pericentriolar material 1 protein (Homo sapiens), Q15154 K1965T” the “effect of a mutation on the interaction” value was “with no effect”. For “Pericentriolar material 1 protein (Homo sapiens), Q15154 K1965V”, the “effect of a mutation on the interaction” value was “with no effect”. With “Pericentriolar material 1 protein (Homo sapiens), Q15154 K1965W” the “effect of a mutation on the interaction” value was “with no effect”. “Pericentriolar material 1 protein (Homo sapiens), Q15154 K1965Y” was tested, and the “effect of a mutation on the interaction” value was “with no effect”. For “Pericentriolar material 1 protein (Homo sapiens), Q15154 K1972A”, the “effect of a mutation on the interaction” value was “with no effect”. “Pericentriolar material 1 protein (Homo sapiens), Q15154 K1972C” was tested, and the “effect of a mutation on the interaction” value was “with no effect”. “Pericentriolar material 1 protein (Homo sapiens), Q15154 K1972D” was tested, and the “effect of a mutation on the interaction” value was “with no effect”. For “Pericentriolar material 1 protein (Homo sapiens), Q15154 K1972E”, the “effect of a mutation on the interaction” value was “with no effect”. For “Pericentriolar material 1 protein (Homo sapiens), Q15154 K1972F”, the “effect of a mutation on the interaction” value was “with no effect”. For “Pericentriolar material 1 protein (Homo sapiens), Q15154 K1972G”, the “effect of a mutation on the interaction” value was “with no effect”. For “Pericentriolar material 1 protein (Homo sapiens), Q15154 K1972H”, the “effect of a mutation on the interaction” value was “with no effect”. For “Pericentriolar material 1 protein (Homo sapiens), Q15154 K1972I”, the “effect of a mutation on the interaction” value was “with no effect”. In the case of “Pericentriolar material 1 protein (Homo sapiens), Q15154 K1972L”, the “effect of a mutation on the interaction” value is reported as “with no effect”. For “Pericentriolar material 1 protein (Homo sapiens), Q15154 K1972M”, the “effect of a mutation on the interaction” value was “with no effect”. In the case of “Pericentriolar material 1 protein (Homo sapiens), Q15154 K1972N”, the “effect of a mutation on the interaction” value is reported as “with no effect”. For “Pericentriolar material 1 protein (Homo sapiens), Q15154 K1972P”, the “effect of a mutation on the interaction” value was “with no effect”. For “Pericentriolar material 1 protein (Homo sapiens), Q15154 K1972Q”, the “effect of a mutation on the interaction” value was “with no effect”. For “Pericentriolar material 1 protein (Homo sapiens), Q15154 K1972R”, the “effect of a mutation on the interaction” value was “with no effect”. “Pericentriolar material 1 protein (Homo sapiens), Q15154 K1972S” was tested, and the “effect of a mutation on the interaction” value was “with no effect”. “Pericentriolar material 1 protein (Homo sapiens), Q15154 K1972T” was tested, and the “effect of a mutation on the interaction” value was “with no effect”. For “Pericentriolar material 1 protein (Homo sapiens), Q15154 K1972V”, the “effect of a mutation on the interaction” value was “with no effect”. For “Pericentriolar material 1 protein (Homo sapiens), Q15154 K1972W”, the “effect of a mutation on the interaction” value was “with no effect”. “Pericentriolar material 1 protein (Homo sapiens), Q15154 K1972Y” was tested, and the “effect of a mutation on the interaction” value was “with no effect”. With “Pericentriolar material 1 protein (Homo sapiens), Q15154 L1969A” the “effect of a mutation on the interaction” value was “with no effect”. With “Pericentriolar material 1 protein (Homo sapiens), Q15154 L1969C” the “effect of a mutation on the interaction” value was “with no effect”. With “Pericentriolar material 1 protein (Homo sapiens), Q15154 L1969D” the “effect of a mutation on the interaction” value was “with no effect”. “Pericentriolar material 1 protein (Homo sapiens), Q15154 L1969E” was tested, and the “effect of a mutation on the interaction” value was “with no effect”. In the case of “Pericentriolar material 1 protein (Homo sapiens), Q15154 L1969F”, the “effect of a mutation on the interaction” value is reported as “with no effect”. For “Pericentriolar material 1 protein (Homo sapiens), Q15154 L1969G”, the “effect of a mutation on the interaction” value was “with no effect”. In the case of “Pericentriolar material 1 protein (Homo sapiens), Q15154 L1969H”, the “effect of a mutation on the interaction” value is reported as “with no effect”. In the case of “Pericentriolar material 1 protein (Homo sapiens), Q15154 L1969I”, the “effect of a mutation on the interaction” value is reported as “with no effect”. In the case of “Pericentriolar material 1 protein (Homo sapiens), Q15154 L1969K”, the “effect of a mutation on the interaction” value is reported as “with no effect”. With “Pericentriolar material 1 protein (Homo sapiens), Q15154 L1969M” the “effect of a mutation on the interaction” value was “with no effect”. “Pericentriolar material 1 protein (Homo sapiens), Q15154 L1969N” was tested, and the “effect of a mutation on the interaction” value was “with no effect”.
